Experimental data: patent US20240024520A1, “AUTONOMOUS KNOB DOMAIN PEPTIDES” (UCB BIOPHARMA SRL, priority 2020, published 2024)
Values joined by “and” are separate entries in the source; they are usually repeats but may differ in a detail not shown here. Equal entries are not always repeated. Where two headings read alike, the source gives them in different places.

Columns and labels:
[1] = molecular target: human complement component C5 (human), P01031
[2] = molecular target: human complement component C5 (human), P01031; remark: listed apart in the source
[3] = molecular target: human complement component C5 (human), P01031; remark: listed apart in the source
[4] = molecular target: human complement component C5 (human), P01031; test: SPR multi-cycle kinetics
[5] = molecular target: human complement component C5 (human), P01031; remark: listed apart in the source

Chain of human complement component C5 (human), P01031 (P01031 19-673 limits assumed, chain 1 of 2): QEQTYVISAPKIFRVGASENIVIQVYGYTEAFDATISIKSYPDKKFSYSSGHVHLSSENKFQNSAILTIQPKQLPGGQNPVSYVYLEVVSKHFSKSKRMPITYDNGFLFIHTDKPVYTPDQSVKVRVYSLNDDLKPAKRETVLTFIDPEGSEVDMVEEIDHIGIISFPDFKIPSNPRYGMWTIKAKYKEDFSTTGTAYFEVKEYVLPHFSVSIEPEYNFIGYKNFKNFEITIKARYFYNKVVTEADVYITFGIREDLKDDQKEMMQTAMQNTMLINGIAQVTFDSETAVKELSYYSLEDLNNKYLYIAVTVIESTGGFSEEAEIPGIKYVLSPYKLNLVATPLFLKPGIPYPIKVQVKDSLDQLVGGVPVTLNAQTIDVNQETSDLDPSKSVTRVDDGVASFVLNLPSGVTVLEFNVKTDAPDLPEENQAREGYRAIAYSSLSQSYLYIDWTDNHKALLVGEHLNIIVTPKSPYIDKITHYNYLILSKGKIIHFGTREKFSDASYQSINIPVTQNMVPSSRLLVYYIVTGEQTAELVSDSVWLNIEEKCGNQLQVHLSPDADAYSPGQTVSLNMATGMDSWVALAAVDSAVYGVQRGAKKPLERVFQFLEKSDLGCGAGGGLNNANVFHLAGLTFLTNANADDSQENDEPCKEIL
Chain of human complement component C5 (human), P01031 (P01031 678-1676 limits assumed, chain 2 of 2): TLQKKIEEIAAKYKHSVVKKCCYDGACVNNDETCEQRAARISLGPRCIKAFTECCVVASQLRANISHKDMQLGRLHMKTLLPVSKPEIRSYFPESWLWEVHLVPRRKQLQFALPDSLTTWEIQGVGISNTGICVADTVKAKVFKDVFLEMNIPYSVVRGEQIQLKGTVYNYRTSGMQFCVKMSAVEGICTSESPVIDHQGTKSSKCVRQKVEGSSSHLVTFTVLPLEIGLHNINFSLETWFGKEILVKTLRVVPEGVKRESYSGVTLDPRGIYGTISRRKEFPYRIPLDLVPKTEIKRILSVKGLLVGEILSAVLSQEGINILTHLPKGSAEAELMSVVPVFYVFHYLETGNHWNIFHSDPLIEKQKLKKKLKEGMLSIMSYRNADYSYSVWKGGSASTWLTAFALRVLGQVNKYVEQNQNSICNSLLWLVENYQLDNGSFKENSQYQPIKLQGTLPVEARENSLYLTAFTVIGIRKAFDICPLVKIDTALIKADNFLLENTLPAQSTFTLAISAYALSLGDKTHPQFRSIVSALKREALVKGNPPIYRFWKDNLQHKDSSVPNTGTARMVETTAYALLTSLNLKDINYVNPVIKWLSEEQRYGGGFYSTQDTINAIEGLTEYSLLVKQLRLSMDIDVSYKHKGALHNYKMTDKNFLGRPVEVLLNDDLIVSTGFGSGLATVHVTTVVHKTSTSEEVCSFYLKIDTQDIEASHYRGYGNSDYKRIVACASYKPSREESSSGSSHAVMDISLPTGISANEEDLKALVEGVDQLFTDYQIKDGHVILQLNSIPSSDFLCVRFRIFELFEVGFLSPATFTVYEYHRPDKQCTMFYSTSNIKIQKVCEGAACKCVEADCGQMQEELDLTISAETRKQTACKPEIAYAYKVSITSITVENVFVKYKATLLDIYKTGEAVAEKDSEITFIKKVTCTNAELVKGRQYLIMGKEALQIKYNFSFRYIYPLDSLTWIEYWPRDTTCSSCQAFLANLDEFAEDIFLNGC

Binder | Kd [1] [nM] | IC50 [2] | Ki [2] [nM] | Kd [3] [nM] | koff [3] [s⁻¹] | kon [3] [M⁻¹ s⁻¹] | fold lower affinity than K149chemSD-A [4] [fold] | Kd [5] [nM] | koff [5] [s⁻¹] | kon [5] [M⁻¹ s⁻¹]
GSTCPDNYREVDGCDPYDCCLTTWCTNSYCTRYIENLYFQ (modifications not checked) [K136 knob domain peptide cleaved from the 645 Fab] | 6.4 | 44.9 nM and 31.2 nM | 18.9 | – | – | – | – | – | – | –
GSGSCPDGFSYRSWDDFCCPMVGRCLAPRNGSENLYFQ (modifications not checked) [K149 knob domain peptide cleaved from the 645 Fab] | 36.5 | – | 26.7 | – | – | – | – | – | – | –
SCPDGFSYRSWDDFCCPMVGRCLAPRN (modifications not checked) [K149B knob domain peptide, chemically synthesised, site-directed disulphides] | – | – | – | 269 | 0.00417 | 15600 | 35 | 246 | 0.00732 | 29700
SCPDGFSYRSWDDFCCPMVGRCLAPRN (modifications not checked) [K149chemFE knob domain peptide] | – | – | – | 5.57 | 0.00448 | 861000 | – | – | – | –
SCPDGFSYRSWDDFCCPMVGRCLAPRNGS (modifications not checked) [K149 knob domain peptide, chemically synthesised, free energy method (Example 4)] | – | – | – | – | – | – | – | 4.46 | 0.00685 | 1.54e+06
